Reference: US20050059058A1 (CASE WESTERN RESERVE UNIVERSITY, published 2005)

Assays:
[1] = biological target: T1, FtsZ protein (native, unlabelled) (Escherichia coli, UniProt P0A9A6 1-383); assay: assay not described
T1 construct: also called native FtsZ; immobilized FtsZ
T1 sequence (looked up): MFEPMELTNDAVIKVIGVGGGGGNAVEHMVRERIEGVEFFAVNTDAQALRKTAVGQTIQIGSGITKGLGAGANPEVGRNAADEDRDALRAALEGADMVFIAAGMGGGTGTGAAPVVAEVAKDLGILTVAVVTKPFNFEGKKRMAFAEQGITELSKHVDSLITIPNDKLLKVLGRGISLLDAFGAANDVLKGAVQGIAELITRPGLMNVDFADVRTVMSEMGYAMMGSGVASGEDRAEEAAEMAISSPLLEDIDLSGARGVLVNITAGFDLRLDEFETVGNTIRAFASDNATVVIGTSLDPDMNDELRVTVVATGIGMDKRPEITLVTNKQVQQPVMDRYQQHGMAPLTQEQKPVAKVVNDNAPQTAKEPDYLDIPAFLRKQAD

ZipA protein of E. coli = biological target: T2, ZipA protein of E. coli (Escherichia coli, UniProt B1IX59 1-328); assay: affinity blotting (far Western) with 32P-labelled probe
T2 construct: Complete ZipA as present in the insoluble (P200) fraction of E. coli, or overproduced from the zipA ORF in a T7 system; on blots after boiling in SDS; also called 50 Kd band
Description: To address the possibility that other proteins interact with FtsZ, the present inventors searched for proteins with affinity to FtsZ. In one approach, a FtsZ derivative (HFKT-FtsZ) was made which carries at the N-terminus a histidine-tag (the his-tag is useful for purification by metal chelate affinity chromatography such as that described in U.S. Pat. No. 5,310,663, hereby incorporated by reference) as well s a substrate site for heart muscle kinase. The purified protein was radiolabeled in vitro by incubation with kinase and [γ³²P]ATP and used as a probe on Western blots.
After the addition of one volume of electrophoresis sample buffer (125 mM Tris.Cl, 4% SDS, 20% glycerol, 1.4 M (β-mercaptoethanol, pH=6.6), samples (e.g., whole cells boiled in sample buffer, or fractionated cells) were held in a boiling water bath for 5 min., and subjected to conventional SDS-PAGE on 0.75 mm thick 10% T/2.7% C gels. Electrophoretic transfer to nitrocellulose filter (0.2μ) was performed in a Genie blotter (Idea Scientific Co.) with regular Towbin buffer (25 mM Tris.Cl, 192 mM glycine, 20% methanol, pH 8.3) at 12 V for 30 min. To monitor the transfer and to visualize the molecular weight standards, filters were treated with the reversible stain Ponceau S (0.1% in 5% acetic acid) for 1 min. Filters were next destained in 10 mM Tris-Cl, rinsed in water, and allowed to dry for 15 min in air.

B1: soluble fragment of ZipA (the 39-328 peptide) (other)
chain: not shown
notes: also called portion or fragment of the ZipA protein
Q: Does B1 bind [1]?
A: Result: binds

B2: HFKT-MinE fusion protein (15.9 kD, encoded by pDB311), 32P-labelled (other, Escherichia coli)
chain: MGHHHHHHHHHHSSGHIEGRHMDYKDDDDKARRASVEFHMASMTGGQQMGRGSDFFLSRKKNTANIAKERLQIIVAERRRSDAEPHYLPQLRKDILEVICKYVQIDPEMVTVQLEQKDGDISILELNVTLPEAEELK
modifications: 32P-phosphorylated in vitro by bovine heart muscle kinase at the kinase substrate site of the HFKT tag
notes: range 5-88; Negative control probe; also called HKFT-MinE; radiolabelled HKFT-MinE
Q: Does B2 bind (ZipA protein of E. coli)?
A: Result: no binding
